Here are results for two molecules from patent US20240124528A1 (ACADEMIA SINICA, published 2024).

The target in experiment [1] is T1, IL-17RB-HA (C-terminally HA-tagged full-length IL-17RB, wild type) (human, UniProt Q9NRM6 18-502).
T1 construct: Full-length IL-17RB subcloned into pcDNA3.1, expressed in 293T, IL-17RB-KO BxPC3 or SU.86.86 cells; also called HA-IL-17RB; HA-tagged WT IL-17RB; not shown: HA tag, C-terminal
T1 sequence: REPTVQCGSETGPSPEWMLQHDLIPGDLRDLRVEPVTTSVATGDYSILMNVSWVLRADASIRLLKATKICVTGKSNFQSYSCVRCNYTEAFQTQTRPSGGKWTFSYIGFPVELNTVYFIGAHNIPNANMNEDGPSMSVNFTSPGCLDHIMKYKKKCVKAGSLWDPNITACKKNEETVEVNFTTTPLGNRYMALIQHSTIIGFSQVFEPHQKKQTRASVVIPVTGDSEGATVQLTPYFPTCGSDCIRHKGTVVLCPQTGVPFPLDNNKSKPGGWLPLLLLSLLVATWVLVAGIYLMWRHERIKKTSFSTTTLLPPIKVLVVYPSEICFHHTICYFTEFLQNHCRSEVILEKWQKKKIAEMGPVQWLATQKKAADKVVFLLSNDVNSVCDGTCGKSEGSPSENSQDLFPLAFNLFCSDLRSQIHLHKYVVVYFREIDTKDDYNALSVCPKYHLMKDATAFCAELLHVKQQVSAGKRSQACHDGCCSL
In words: co-IP with anti-HA beads, IL-17RB-KO BxPC3 cells, 50 ng/ml rIL-17B (FIG. 14B).

The target in a further experiment is T2, ACT1, endogenous (human, UniProt O43734 1-574, limits assumed).
T2 sequence (looked up): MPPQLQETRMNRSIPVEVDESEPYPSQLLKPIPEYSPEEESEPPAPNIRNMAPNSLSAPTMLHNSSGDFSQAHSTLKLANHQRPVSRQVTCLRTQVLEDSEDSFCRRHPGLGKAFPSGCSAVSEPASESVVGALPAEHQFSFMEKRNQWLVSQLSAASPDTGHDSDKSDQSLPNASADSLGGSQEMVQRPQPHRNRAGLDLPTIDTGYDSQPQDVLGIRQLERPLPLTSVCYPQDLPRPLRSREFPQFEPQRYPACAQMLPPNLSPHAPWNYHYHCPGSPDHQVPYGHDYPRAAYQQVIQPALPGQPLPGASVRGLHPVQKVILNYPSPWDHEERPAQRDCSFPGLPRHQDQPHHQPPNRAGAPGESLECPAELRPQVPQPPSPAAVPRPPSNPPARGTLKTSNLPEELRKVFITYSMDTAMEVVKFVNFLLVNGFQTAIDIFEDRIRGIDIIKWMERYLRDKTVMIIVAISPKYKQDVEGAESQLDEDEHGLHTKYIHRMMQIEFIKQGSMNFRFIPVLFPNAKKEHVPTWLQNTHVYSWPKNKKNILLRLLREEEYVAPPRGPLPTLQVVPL
In words: co-IP with anti-Flag agarose, IL-17RB-KO BxPC3 cells, rIL-17B (FIG. 6G).

Another experiment has as its target T3, TAK1, endogenous (human, UniProt O43318 1-606, limits assumed).
T3 sequence (looked up): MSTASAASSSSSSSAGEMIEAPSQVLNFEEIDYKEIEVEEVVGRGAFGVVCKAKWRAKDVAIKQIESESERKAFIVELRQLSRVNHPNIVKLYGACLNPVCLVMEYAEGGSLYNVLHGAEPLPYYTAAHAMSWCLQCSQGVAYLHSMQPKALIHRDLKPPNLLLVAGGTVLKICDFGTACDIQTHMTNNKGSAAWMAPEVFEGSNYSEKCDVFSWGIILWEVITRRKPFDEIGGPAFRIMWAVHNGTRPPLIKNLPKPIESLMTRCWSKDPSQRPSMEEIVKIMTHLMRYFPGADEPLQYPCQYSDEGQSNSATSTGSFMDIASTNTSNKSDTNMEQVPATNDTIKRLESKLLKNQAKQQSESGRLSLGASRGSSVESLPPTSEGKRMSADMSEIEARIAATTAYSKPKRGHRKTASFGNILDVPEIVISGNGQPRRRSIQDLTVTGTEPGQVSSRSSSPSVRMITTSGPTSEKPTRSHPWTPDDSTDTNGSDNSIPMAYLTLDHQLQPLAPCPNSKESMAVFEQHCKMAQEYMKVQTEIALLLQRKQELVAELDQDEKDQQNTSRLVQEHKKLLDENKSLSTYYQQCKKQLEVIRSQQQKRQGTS
The description is as above.

A further experiment concerns the target T4, TRAF6, endogenous (human, UniProt Q9Y4K3 1-522).
T4 sequence (looked up): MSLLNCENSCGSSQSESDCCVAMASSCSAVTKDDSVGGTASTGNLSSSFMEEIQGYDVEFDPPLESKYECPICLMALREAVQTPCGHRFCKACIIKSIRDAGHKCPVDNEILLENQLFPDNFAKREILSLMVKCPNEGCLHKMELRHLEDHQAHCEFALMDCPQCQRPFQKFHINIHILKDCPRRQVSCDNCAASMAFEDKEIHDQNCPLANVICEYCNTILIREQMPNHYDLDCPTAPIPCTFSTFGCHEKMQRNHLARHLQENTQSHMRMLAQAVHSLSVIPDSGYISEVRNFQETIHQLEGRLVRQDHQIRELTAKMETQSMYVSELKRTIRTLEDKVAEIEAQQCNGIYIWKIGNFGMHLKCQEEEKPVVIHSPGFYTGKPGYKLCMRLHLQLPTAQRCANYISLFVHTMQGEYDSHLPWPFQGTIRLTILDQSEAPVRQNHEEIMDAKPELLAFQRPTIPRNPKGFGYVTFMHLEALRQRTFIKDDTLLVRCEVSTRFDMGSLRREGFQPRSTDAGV
The experiment is described as above.

A further experiment has as its target T5, Flag-MLK4 (human, UniProt Q5TCX8 1-1036, limits assumed).
T5 construct: also called Flag-tagged WT MLK4; not shown: Flag tag
The experiment in a line: reciprocal co-IP, 293T cells, rIL-17B (FIG. 5C).

In experiment [2] the target is T6, mixed-lineage kinase 4 (MLK4), endogenous (human, UniProt Q5TCX8 1-1036, limits assumed).
T6 construct: also called KIAA1804; MAP3K21
In words: co-IP with anti-HA beads, blot with anti-MLK4, rIL-17B (FIG. 5D).

T5 sequence (Q5TCX8 whole entry): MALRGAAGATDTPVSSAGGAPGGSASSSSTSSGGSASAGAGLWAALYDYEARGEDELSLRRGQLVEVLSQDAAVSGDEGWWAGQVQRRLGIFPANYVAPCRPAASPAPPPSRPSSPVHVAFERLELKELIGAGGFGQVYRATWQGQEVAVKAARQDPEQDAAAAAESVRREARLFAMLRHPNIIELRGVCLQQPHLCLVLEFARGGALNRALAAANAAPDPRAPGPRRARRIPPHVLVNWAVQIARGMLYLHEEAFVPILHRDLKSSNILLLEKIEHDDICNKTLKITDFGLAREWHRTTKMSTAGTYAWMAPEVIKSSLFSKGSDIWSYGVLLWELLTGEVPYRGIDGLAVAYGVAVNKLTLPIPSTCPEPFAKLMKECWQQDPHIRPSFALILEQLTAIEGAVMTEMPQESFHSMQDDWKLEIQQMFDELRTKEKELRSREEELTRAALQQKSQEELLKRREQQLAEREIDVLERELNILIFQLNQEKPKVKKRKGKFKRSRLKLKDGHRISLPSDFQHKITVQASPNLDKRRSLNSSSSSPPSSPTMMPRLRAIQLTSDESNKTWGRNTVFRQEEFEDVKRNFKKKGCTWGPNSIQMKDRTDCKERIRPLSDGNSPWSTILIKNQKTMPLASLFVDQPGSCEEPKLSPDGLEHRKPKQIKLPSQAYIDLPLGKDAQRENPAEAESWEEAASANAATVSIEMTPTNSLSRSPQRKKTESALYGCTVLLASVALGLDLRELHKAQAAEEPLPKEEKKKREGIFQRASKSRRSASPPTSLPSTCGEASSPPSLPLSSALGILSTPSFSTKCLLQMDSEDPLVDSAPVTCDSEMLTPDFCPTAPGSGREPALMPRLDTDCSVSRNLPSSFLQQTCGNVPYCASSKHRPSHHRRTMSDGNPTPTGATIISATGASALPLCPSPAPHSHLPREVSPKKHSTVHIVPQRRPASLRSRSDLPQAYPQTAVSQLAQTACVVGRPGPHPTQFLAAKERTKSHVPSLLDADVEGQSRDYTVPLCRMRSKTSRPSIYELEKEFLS
T6 sequence (Q5TCX8 whole entry): as above

B1: IL-17RB K470R, Flag-tagged (receptor)
chain: REPTVQCGSETGPSPEWMLQHDLIPGDLRDLRVEPVTTSVATGDYSILMNVSWVLRADASIRLLKATKICVTGKSNFQSYSCVRCNYTEAFQTQTRPSGGKWTFSYIGFPVELNTVYFIGAHNIPNANMNEDGPSMSVNFTSPGCLDHIMKYKKKCVKAGSLWDPNITACKKNEETVEVNFTTTPLGNRYMALIQHSTIIGFSQVFEPHQKKQTRASVVIPVTGDSEGATVQLTPYFPTCGSDCIRHKGTVVLCPQTGVPFPLDNNKSKPGGWLPLLLLSLLVATWVLVAGIYLMWRHERIKKTSFSTTTLLPPIKVLVVYPSEICFHHTICYFTEFLQNHCRSEVILEKWQKKKIAEMGPVQWLATQKKAADKVVFLLSNDVNSVCDGTCGKSEGSPSENSQDLFPLAFNLFCSDLRSQIHLHKYVVVYFREIDTKDDYNALSVCPKYHLMRDATAFCAELLHVKQQVSAGKRSQACHDGCCSL
notes: also called K470R-mutant IL-17RB; not shown: Flag tag
On to B1, for which the binding result is reported as “binds” in experiment [1]; “no binding” in the experiment with ACT1, endogenous; “no binding” with TAK1, endogenous; “no binding” with TRAF6, endogenous.

B2: IL-17RB ΔV403˜S416 (Del-3), HA-tagged (receptor)
chain: REPTVQCGSETGPSPEWMLQHDLIPGDLRDLRVEPVTTSVATGDYSILMNVSWVLRADASIRLLKATKICVTGKSNFQSYSCVRCNYTEAFQTQTRPSGGKWTFSYIGFPVELNTVYFIGAHNIPNANMNEDGPSMSVNFTSPGCLDHIMKYKKKCVKAGSLWDPNITACKKNEETVEVNFTTTPLGNRYMALIQHSTIIGFSQVFEPHQKKQTRASVVIPVTGDSEGATVQLTPYFPTCGSDCIRHKGTVVLCPQTGVPFPLDNNKSKPGGWLPLLLLSLLVATWVLVAGIYLMWRHERIKKTSFSTTTLLPPIKVLVVYPSEICFHHTICYFTEFLQNHCRSEVILEKWQKKKIAEMGPVQWLATQKKAADKVVFLLSNDVNSENSQDLFPLAFNLFCSDLRSQIHLHKYVVVYFREIDTKDDYNALSVCPKYHLMKDATAFCAELLHVKQQVSAGKRSQACHDGCCSL
notes: Deletion of the flexible loop; also called Del-3 mutant; not shown: HA tag
For B2, the binding result (with Flag-MLK4; in experiment [2]) was “no binding” in each case.
